Test results reported in publication PMC11022571, “Functional analysis of feedback inhibition-insensitive aspartate kinase identified in a threonine-accumulating mutant of Saccharomyces cerevisiae” (Applied and Environmental Microbiology, 2024).

T1: Hom3 (aspartate kinase, AK) (Saccharomyces cerevisiae, UniProt P10869)
T1 sequence (P10869 1-527): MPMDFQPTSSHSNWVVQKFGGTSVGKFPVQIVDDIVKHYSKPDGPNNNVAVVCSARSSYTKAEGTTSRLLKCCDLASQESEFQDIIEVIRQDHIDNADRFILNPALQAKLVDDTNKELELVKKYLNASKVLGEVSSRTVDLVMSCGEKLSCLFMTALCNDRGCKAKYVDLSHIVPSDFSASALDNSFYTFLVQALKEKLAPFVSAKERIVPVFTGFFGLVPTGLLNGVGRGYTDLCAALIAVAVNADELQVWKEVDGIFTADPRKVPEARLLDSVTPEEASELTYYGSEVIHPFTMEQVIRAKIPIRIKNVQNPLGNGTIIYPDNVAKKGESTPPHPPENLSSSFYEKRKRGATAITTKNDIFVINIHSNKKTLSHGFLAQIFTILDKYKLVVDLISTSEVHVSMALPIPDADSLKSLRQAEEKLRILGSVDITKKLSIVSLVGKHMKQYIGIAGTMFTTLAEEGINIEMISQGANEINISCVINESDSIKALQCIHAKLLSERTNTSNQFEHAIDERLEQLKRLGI


Experiments:
[1] = molecular target: T1, Hom3 (aspartate kinase, AK); assay: PK/LDH-coupled AK assay at […] Asp and […] ATP; BN-PAGE shift from ~[…] to ~[…] kDa with […] Thr; format: biochemical
[2] = substrate: N[C@@H](CC(=O)O)C(=O)O; assay: steady-state kinetics (Km), PK/LDH-coupled assay; format: biochemical, Saccharomyces cerevisiae; details: Mg2+ ([…] MgSO4 in assay)
[3] = substrate: Nc1ncnc2c1ncn2[C@@H]1O[C@H](COP(=O)(O)OP(=O)(O)OP(=O)(O)O)[C@@H](O)[C@H]1O; assay: steady-state kinetics (Km), PK/LDH-coupled assay; format: biochemical, Saccharomyces cerevisiae; details: Mg2+ ([…] MgSO4 in assay)

Molecule	IC50 [1] [mM]	Km [2] [µM]	kcat [2] [s⁻¹]	kcat/Km [2] [M⁻¹ s⁻¹]	Km [3] [µM]	kcat [3] [s⁻¹]	kcat/Km [3] [M⁻¹ s⁻¹]
C[C@@H](O)[C@H](N)C(=O)O [threonine]	5.4 ± 0.12	–	–	–	–	–	–
Hom3 (aspartate kinase, AK) (Saccharomyces cerevisiae S288C) (protein) MPMDFQPTSSHSNWVVQKFGGTSVGKFPVQIVDDIVKHYSKPDGPNNNVAVVCSARSSYTKAEGTTSRLLKCCDLASQESEFQDIIEVIRQDHIDNADRFILNPALQAKLVDDTNKELELVKKYLNASKVLGEVSSRTVDLVMSCGEKLSCLFMTALCNDRGCKAKYVDLSHIVPSDFSASALDNSFYTFLVQALKEKLAPFVSAKERIVPVFTGFFGLVPTGLLNGVGRGYTDLCAALIAVAVNADELQVWKEVDGIFTADPRKVPEARLLDSVTPEEASELTYYGSEVIHPFTMEQVIRAKIPIRIKNVQNPLGNGTIIYPDNVAKKGESTPPHPPENLSSSFYEKRKRGATAITTKNDIFVINIHSNKKTLSHGFLAQIFTILDKYKLVVDLISTSEVHVSMALPIPDADSLKSLRQAEEKLRILGSVDITKKLSIVSLVGKHMKQYIGIAGTMFTTLAEEGINIEMISQGANEINISCVINESDSIKALQCIHAKLLSERTNTSNQFEHAIDERLEQLKRLGI	–	3800 ± 360	55 ± 1.5	15000	830 ± 44	54 ± 0.78	65000
Hom3 (aspartate kinase, AK) (Saccharomyces cerevisiae S288C; A462T) (protein) MPMDFQPTSSHSNWVVQKFGGTSVGKFPVQIVDDIVKHYSKPDGPNNNVAVVCSARSSYTKAEGTTSRLLKCCDLASQESEFQDIIEVIRQDHIDNADRFILNPALQAKLVDDTNKELELVKKYLNASKVLGEVSSRTVDLVMSCGEKLSCLFMTALCNDRGCKAKYVDLSHIVPSDFSASALDNSFYTFLVQALKEKLAPFVSAKERIVPVFTGFFGLVPTGLLNGVGRGYTDLCAALIAVAVNADELQVWKEVDGIFTADPRKVPEARLLDSVTPEEASELTYYGSEVIHPFTMEQVIRAKIPIRIKNVQNPLGNGTIIYPDNVAKKGESTPPHPPENLSSSFYEKRKRGATAITTKNDIFVINIHSNKKTLSHGFLAQIFTILDKYKLVVDLISTSEVHVSMALPIPDADSLKSLRQAEEKLRILGSVDITKKLSIVSLVGKHMKQYIGIAGTMFTTLTEEGINIEMISQGANEINISCVINESDSIKALQCIHAKLLSERTNTSNQFEHAIDERLEQLKRLGI	–	4400 ± 370	55 ± 1.4	13000	1000 ± 71	53 ± 1.1	51000
